# From patent US20220143214A1
# Where two headings read alike, the source gives them in different places.
# What was measured:
# [1] = molecular target: LY6C1 (Ly6c1, C57BL/6J mouse, splice variant 1) (mouse (C57BL/6J)) (UniProt P0CW02); assay: AAV library bound to Ly6c1-transfected HEK293T cells, NGS
# [2] = molecular target: LY6A (Ly6a, C57BL/6J mouse) (mouse (C57BL/6J)) (UniProt P05533); assay: AAV library bound to Ly6a-transfected HEK293T cells, NGS
# [3] = molecular target: LY6C1 (Ly6c1, C57BL/6J mouse, splice variant 1) (mouse (C57BL/6J)) (UniProt P0CW02); assay: cell-based or functional assay
# [4] = molecular target: LY6C1 (Ly6c1, C57BL/6J mouse, splice variant 1) (mouse (C57BL/6J)) (UniProt P0CW02); assay: AAV library bound to Ly6c1-transfected HEK293T cells, NGS; remark: listed apart in the source
# [5] = molecular target: LY6A (Ly6a, C57BL/6J mouse) (mouse (C57BL/6J)) (UniProt P05533); assay: AAV library bound to Ly6a-transfected HEK293T cells, NGS; remark: listed apart in the source
# [6] = molecular target: LY6A (Ly6a, C57BL/6J mouse) (mouse (C57BL/6J)) (UniProt P05533); assay: qPCR of viral genomes bound to Ly6a-transfected HEK293T cells
# UniProt P0CW02, sequence (P0CW02 27-109 limits assumed, change not shown): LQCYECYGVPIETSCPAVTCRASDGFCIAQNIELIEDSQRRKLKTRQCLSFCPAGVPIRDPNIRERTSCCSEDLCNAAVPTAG
# UniProt P05533, sequence (P05533 27-112 limits assumed): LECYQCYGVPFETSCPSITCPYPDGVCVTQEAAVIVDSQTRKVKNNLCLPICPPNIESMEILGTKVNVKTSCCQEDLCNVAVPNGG
Substance,fold enrichment (log2) [4] [log2],fold enrichment (log2) [5] [log2],further results
AAV9 K449R 7-mer variant C1 (KSAGSIY),,,fold enrichment (log2) [1]: 6.12 log2; fold enrichment (log2) [2]: 1.41 log2
AAV9 K449R 7-mer variant C3 (WGTPPRG),,,fold enrichment (log2) [1]: 6.35 log2; fold enrichment (log2) [2]: 1.01 log2
AAV9 K449R 7-mer variant C5 (ELYKLPT),,,fold enrichment (log2) [1]: 5.38 log2; fold enrichment (log2) [2]: -2.26 log2
AAV9 K449R 7-mer variant C28 (KSVGSVY),,,fold enrichment (log2) [1]: 3.59 log2; transduction of hCMEC cells (firefly luciferase assay) (logs (base 10)) [3]: 2; fold enrichment (log2) [2]: -1.24 log2
AAV9 K449R 7-mer variant MVRNYST,3.25,-0.94,
AAV9 K449R 7-mer variant NDQRPFL,-4.33,3.27,
AAV9 K449R 7-mer variant NERRPFL,0.77,4.31,
AAV9 K449R 7-mer variant NGYKGST,4.98,1.24,
AAV9 K449R 7-mer variant NIIRPFA,0.4,3.23,
AAV9 K449R 7-mer variant NKVGYST,3.13,-3.74,
AAV9 K449R 7-mer variant NLKRPFA,0.85,2.8,
AAV9 K449R 7-mer variant NMERPFR,0.95,2.96,
AAV9 K449R 7-mer variant NRGGYAS,4.53,-0.18,
AAV9 K449R 7-mer variant NSPGWSS,3.08,-0.93,
AAV9 K449R 7-mer variant PPSFKNV,-4.33,3.69,
AAV9 K449R 7-mer variant PYQGASS,5.24,-0.53,
AAV9 K449R 7-mer variant QDKGYSS,2.61,-3.55,
AAV9 K449R 7-mer variant QHFGQSS,4.68,-0.37,
AAV9 K449R 7-mer variant QNARPFV,1.42,1.52,
AAV9 K449R 7-mer variant QSAGYST,2.55,-1.58,
AAV9 K449R 7-mer variant QTLFKNI,-0.72,3.07,

Substance,fold enrichment (log2) [4] [log2],fold enrichment (log2) [5] [log2],further results
AAV9 K449R 7-mer variant RATGYSS,4.75,2.49,
AAV9 K449R 7-mer variant RIDNPFK,-1.89,4.48,
AAV9 K449R 7-mer variant RLSFKDV,-1.62,2.39,
AAV9 K449R 7-mer variant RSDFKDI,-2.44,3.45,
AAV9 K449R 7-mer variant SEGRPFI,-3.55,1.85,
AAV9 K449R 7-mer variant SHTKPFA,0.97,4.79,
AAV9 K449R 7-mer variant SIARPFV,-3.55,3.79,
AAV9 K449R 7-mer variant SINKPFV,-0.3,4.74,
AAV9 K449R 7-mer variant SIYLGSQ,4.47,-0.76,
AAV9 K449R 7-mer variant SKGSYST,2.74,1.54,
AAV9 K449R 7-mer variant SKSGYSA,2.14,-3.32,
AAV9 K449R 7-mer variant SKTGYST,4.43,-3.55,
AAV9 K449R 7-mer variant SLDFKNI,-1.29,4.61,
AAV9 K449R 7-mer variant SLSKPFS,-2.08,2.19,
AAV9 K449R 7-mer variant SNDRPFI,-1.02,5.43,
AAV9 K449R 7-mer variant SQKTPFL,-3.55,3.81,
AAV9 K449R 7-mer variant SSEKPFQ,-3.55,2.69,
AAV9 K449R 7-mer variant SSTGYSS,4,-1.93,
AAV9 K449R 7-mer variant STRGYSA,3.55,1.08,
AAV9 K449R 7-mer variant STTFKDI,-3.32,3.44,
AAV9 K449R 7-mer variant SYIGASS,5.08,-1.01,

Substance,fold enrichment (log2) [4] [log2],fold enrichment (log2) [5] [log2],further results
AAV9 K449R 7-mer variant SYQGYSS,5.21,1.47,
AAV9 K449R 7-mer variant TDTRPFI,-3.32,4.19,
AAV9 K449R 7-mer variant TEKWTSS,4.43,0.98,
AAV9 K449R 7-mer variant TGTSPFK,-3.32,2.22,
AAV9 K449R 7-mer variant TITFKDV,-0.78,5.15,
AAV9 K449R 7-mer variant TKSGYST,5.71,0.68,
AAV9 K449R 7-mer variant TKSTPFI,-1.85,2.6,
AAV9 K449R 7-mer variant TKYMHSS,4.24,1.35,
AAV9 K449R 7-mer variant TLAYPFK,-0.72,3.93,
AAV9 K449R 7-mer variant TQQGYSS,5.8,-0.92,
AAV9 K449R 7-mer variant TRDLPFK,-1.36,4.34,
AAV9 K449R 7-mer variant TRFGAST,4.32,0,
AAV9 K449R 7-mer variant TRFGSST,3.63,1.29,
AAV9 K449R 7-mer variant TRNGYST,5.58,0.82,fold enrichment (log2) [1]: 4.05 log2; fold enrichment (log2) [2]: 0.186 log2
AAV9 K449R 7-mer variant TRTGYST,4.63,0.89,
AAV9 K449R 7-mer variant TRTSGAS,3.85,0.43,
AAV9 K449R 7-mer variant TSFKPFP,0.48,3.11,
AAV9 K449R 7-mer variant TSMKPFL,-0.98,3.49,
AAV9 K449R 7-mer variant TTMKPFN,-3.74,2.95,
AAV9 K449R 7-mer variant TVMAPFK,-0.19,5.53,
AAV9 K449R 7-mer variant TVTGYSS,3.22,-3.91,

Substance,fold enrichment (log2) [4] [log2],fold enrichment (log2) [5] [log2],further results
AAV9 K449R 7-mer variant TYGGYSQ,2.02,-0.34,
AAV9 K449R 7-mer variant TYKSGSS,3.78,1.95,
AAV9 K449R 7-mer variant VAERPFK,1.22,6.38,
AAV9 K449R 7-mer variant VAVFKNV,-0.91,4.23,
AAV9 K449R 7-mer variant VKGGYSS,3.3,0.07,
AAV9 K449R 7-mer variant VKVGFSS,4.22,-2.25,
AAV9 K449R 7-mer variant VNRGYSS,5.18,0.89,
AAV9 K449R 7-mer variant VPRYGSS,3.55,-1.01,
AAV9 K449R 7-mer variant VRPGWST,5.89,1.02,
AAV9 K449R 7-mer variant VTHGYSS,3.25,-0.84,
AAV9 K449R 7-mer variant VYPGYST,2.21,-3.32,
AAV9 K449R 7-mer variant WRQGYAS,2.89,-0.09,
AAV9 K449R 7-mer variant YENRPFV,-3.32,2.23,
AAV9 K449R 7-mer variant YLKGYSA,4.46,0.15,
AAV9 K449R 7-mer variant YVGNPFK,0.58,4.53,
AAV-PHP.B,,,fold increase in binding on Ly6a expression [6]: > 50 fold
AAV-PHP.B2,,,fold increase in binding on Ly6a expression [6]: > 50 fold
AAV-PHP.B3,,,fold increase in binding on Ly6a expression [6]: > 50 fold
